Laboratory results from patent publication US11911481B2, “Compositions and methods for treating RSV-infections” (UNITED STATES GOVERNMENT AS REPRESENTED BY THE DEPARTMENT …, priority 2018, dated 2024).

Experiments:
[1] = HR2D peptide release from the outer chitosan NP-layer in PBS and in 10% FBS; format: physicochemical; conditions: within 10 minutes
Method: FIGS. 3A-C show DNA-encapsulation and HR2D-release.
The NPs were characterized for the plasmid encapsulation and integrity following synthesis, HR2D peptide release from the outer chitosan NP-layer in PBS and in 10% FBS and their cell (FIG. 3). First, chitosan-DNA nanoparticles were prepared by a complex coacervation method. In order to determine the optimal formulation, nanoparticles of different Chitosan/pDNA ratios were prepared and characterized. The binding of pDNA to chitosan for the formulations prepared herein was analyzed by gel electrophoresis.
Chitosan/pDNA NPs were coated with a liposomal layer after co-extrusion of chitosan-pDNA NPs with pre-formed liposomes. This layer ensures the stability and integrity of the plasmid DNA and the endosomal escape and also allows for functionalization of the nanoparticle surface. The liposomal layer was then coated with another layer of chitosan complexed with fusion inhibitor HR2-D peptide.

RSV rA2-L19F = experiment: Inhibition of RSV rA2-L19F fusion by HR2D peptide in A549 cells; format: cell-based; conditions: A549 cells pre-treated with 5 or 20 μM 30 min before infection, MOI 0.1, 24 hours
Method: Fluorescence microscopy images of A549 cells pre-treated with 5 or 20 μM HR2D peptide 30 min before RFP-RSV-Ln19-A2 infection MOI 0.1 for 24 hours. RFP intensity quantified with ImageJ.
RFP intensity was quantified with ImageJ.

Sequence: DACISQVNECINQSLAFICKSDELLCNT [HR2D peptide]
- peptide released from the outer layer [1]: 90%
- RFP expression (RSV rA2-L19F): significantly lower
